B1: X-linked retinitis pigmentosa GTPase regulator (Homo sapiens), Q92834-2 (parent)
chain: MREPEELMPDSGAVFTFGKSKFAENNPGKFWFKNDVPVHLSCGDEHSAVVTGNNKLYMFGSNNWGQLGLGSKSAISKPTCVKALKPEKVKLAACGRNHTLVSTEGGNVYATGGNNEGQLGLGDTEERNTFHVISFFTSEHKIKQLSAGSNTSAALTEDGRLFMWGDNSEGQIGLKNVSNVCVPQQVTIGKPVSWISCGYYHSAFVTTDGELYVFGEPENGKLGLPNQLLGNHRTPQLVSEIPEKVIQVACGGEHTVVLTENAVYTFGLGQFGQLGLGTFLFETSEPKVIENIRDQTISYISCGENHTALITDIGLMYTFGDGRHGKLGLGLENFTNHFIPTLCSNFLRFIVKLVACGGCHMVVFAAPHRGVAKEIEFDEINDTCLSVATFLPYSSLTSGNVLQRTLSARMRRRERERSPDSFSMRRTLPPIEGTLGLSACFLPNSVFPRCSERNLQESVLSEQDLMQPEEPDYLLDEMTKEAEIDNSSTVESLGETTDILNMTHIMSLNSNEKSLKLSPVQKQKKQQTIGELTQDTALTENDDSDEYEEMSEMKEGKACKQHVSQGIFMTQPATTIEAFSDEEVEIPEEKEGAEDSKGNGIEEQEVEANEENVKVHGGRKEKTEILSDDLTDKAEDHEFSKTEELKLEDVDEEINAENVESKKKTVGDDESVPTGYHSKTEGAERTNDDSSAETIEKKEKANLEERAICEYNENPKGYMLDDADSSSLEILENSETTPSKDMKKTKKIFLFKRVPSINQKIVKNNNEPLPEIKSIGDQIILKSDNKDADQNHMSQNHQNIPPTNTERRSKSCTIL

Variants of: B1
Details: with pde6d_mouse Pde6d

| Variant | effect of a mutation on the interaction |
| --- | --- |
| G215V | disrupting interaction |
| H98Q | disrupting interaction |
| P235S | decreasing interaction |
| F130C | disrupting interaction |

The next lines start with the values.

| effect of a mutation on the interaction | Variant |
| --- | --- |
| disrupting interaction | G275S |
| disrupting interaction | C250R |
